# In IntAct's records for PubMed 22327296:
# B1: Transcription factor JunD (Homo sapiens), P17535 (parent)
# chain: METPFYGDEALSGLGGGASGSGGSFASPGRLFPGAPPTAAAGSMMKKDALTLSLSEQVAAALKPAAAPPPTPLRADGAPSAAPPDGLLASPDLGLLKLASPELERLIIQSNGLVTTTPTSSQFLYPKVAASEEQEFAEGFVKALEDLHKQNQLGAGAAAAAAAAAAGGPSGTATGSAPPGELAPAAAAPEAPVYANLSSYAGGAGGAGGAATVAFAAEPVPFPPPPPPGALGPPRLAALKDEPQTVPDVPSFGESPPLSPIDMDTQERIKAERKRLRNRIAASKCRKRKLERISRLEEKVKTLKSQNTELASTASLLREQVAQLKQKVLSHVNSGCQLLPQHQVPAY
# Variants of: B1
# Details: with mk10_human MAPK10, P53779
# mk10_human MAPK10, P53779, sequence (P53779 whole entry): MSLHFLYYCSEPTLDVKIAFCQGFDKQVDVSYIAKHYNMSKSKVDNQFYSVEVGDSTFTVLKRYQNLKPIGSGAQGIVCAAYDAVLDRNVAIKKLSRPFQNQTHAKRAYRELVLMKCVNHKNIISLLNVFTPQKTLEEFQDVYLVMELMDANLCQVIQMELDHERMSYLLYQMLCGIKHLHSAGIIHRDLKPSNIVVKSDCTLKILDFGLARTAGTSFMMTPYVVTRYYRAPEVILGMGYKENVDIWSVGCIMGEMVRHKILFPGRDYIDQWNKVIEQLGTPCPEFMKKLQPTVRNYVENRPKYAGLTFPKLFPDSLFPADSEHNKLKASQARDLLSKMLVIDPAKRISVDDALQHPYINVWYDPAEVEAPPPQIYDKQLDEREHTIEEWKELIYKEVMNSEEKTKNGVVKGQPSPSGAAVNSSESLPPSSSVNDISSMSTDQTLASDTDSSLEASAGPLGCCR
row,Variant,effect of a mutation on the interaction
1,K46A;K47A,disrupting interaction strength
2,L52A;L54A,disrupting interaction strength
